# Source: patent publication US20250121043A1
# Key:
# Test in all cases: cell-based or functional assay
# [1] = target: 17.6α/8.3β TCR (low affinity IGRP206-214-reactive Vα17.6/8.3β TCR)
# 17.4α/8.3β TCR (8.3-TCR) = target: 17.4α/8.3β TCR (8.3-TCR)
# [2] = target: Vα17.5+ TCR (CDR3-invariant Vα17.5-Jα42 chain with a single TCRβ chain) on TCRαβ-transfectants
substance,measurement,setting,value
NRP-V7/K^d-coated nanoparticles (from UniProt P01902 22-305) (peptide-MHC),"percentage of cells that had formed CD8 caps, 5 min of incubation with beads",[1],< 20%
same,"percentage of cells that had formed CD8 caps, 30 min of incubation with beads",[1],< 20%
same,"percentage of cells that had formed CD8 caps, 5 min of incubation with beads",17.4α/8.3β TCR (8.3-TCR),< 20%
same,"percentage of cells that had formed CD8 caps, 5 min of incubation with beads",[2],> 60%
